Assay results from IntAct's records for PubMed 23565059.

B1: Homeodomain-interacting protein kinase 2 (Mus musculus), Q9QZR5 (parent)
chain: MAPVYEGMASHVQVFSPHTLQSSAFCSVKKLKVEPSSNWDMTGYGSHSKVYSQSKNIPPSQPASTTVSTSLPIPNPSLPYEQTIIFPGSTGHIVVTSASSTSVTGQVLGGPHNLMRRSTVSLLDTYQKCGLKRKSEEIENTSSVQIIEEHPPMIQNNASGATVATATTSTATSKNSGSNSEGDYQLVQHEVLCSMTNTYEVLEFLGRGTFGQVVKCWKRGTNEIVAIKILKNHPSYARQGQIEVSILARLSTESADDYNFVRAYECFQHKNHTCLVFEMLEQNLYDFLKQNKFSPLPLKYIRPVLQQVATALMKLKSLGLIHADLKPENIMLVDPSRQPYRVKVIDFGSASHVSKAVCSTYLQSRYYRAPEIILGLPFCEAIDMWSLGCVIAELFLGWPLYPGASEYDQIRYISQTQGLPAEYLLSAGTKTTRFFNRDTDSPYPLWRLKTPDDHEAETGIKSKEARKYIFNCLDDMAQVNMTTDLEGSDMLVEKADRREFIDLLKKMLTIDADKRVTPIETLNHPFVTMTHLLDFPHSAHVKSCFQNMEICKRRVNMYDTVNQSKTPFITHVAPSTSTNLTMTFNNQLTTVHNQAPTTSSATLSLANPEVSILNYQSALYQPSAASMAAVAPRSMPLQTGTAQICARPDPFQQALIVCPPGFQGLQASPSKHAGYSVRMENAVPIVTQAPGAQPLQIQPGLLAQQAWPGGAQQILLPPAWQQLTGVATHTSVQHAAVIPETMAGTQQLADWRNTHAHGSHYNPIMQQPALLTGHVTLPAAQPLNVGVAHVMRQQPTSTTSSRKSKQHQSSVRNVSTCEVTSSQAISSPQRSKRVKENTPPRCAMVHSSPACSTSVTCGWGDVASSTTRERQRQTIVIPDTPSPTVSVITISSDTDEEEEQKHAPTSTVSKQRKNVISCVTVHDSPYSDSSSNTSPYSVQQRTGHNGTNTLDTKGGLENHCTGNPRTIIVPPLKTQASEVLVECDSLGPAISASHHSSSFKSKSSSTVTSTSGHSSGSSSGAIAYRQQRPGPHFQQQQPLNLSQAQQHMAADRTGSHRRQQAYITPTMAQAPYTFPHNSPSHGTVHPHLAAAAHLPTQPHLYTYTAPTALGSTGTVAHLVASQGSARHTVQHTAYPASIVHQVPVSMGPRVLPSPTIHPSQYPAQFAHQTYISASPASTVYTGYPLSPAKVNQYPYI

Variants of: B1
Conditions: with mef2c_mouse Mef2c

| Variant | effect of a mutation on the interaction |
| --- | --- |
| K228A | decreasing interaction strength |
